From paper PMC3113324, “AKAP5 and AKAP12 Form Homo-oligomers” (Journal of Molecular Signaling, 2011) come the findings set out here.

This series deals with the molecule itself. In words: SDS-PAGE (SDS-resistant oligomers); whole-cell lysates of HEK293 cells on SDS-PAGE without urea; immunoblot with anti-HA or anti-AKAP12; cells also treated with isoproterenol (10 uM, 0, 5, 30 min), KT5720, PD98059 or Rolipram (45 min). On the technique in general: Immunoblotting shows a protein as a band on a membrane.

B1: HA-AKAP12 (1-938) (domain or fragment, human, UniProt Q02952 1-938, looked up)
chain: MGAGSSTEQRSPEQPPEGSSTPAEPEPSGGGPSAEAAPDTTADPAIAASDPATKLLQKNGQLSTINGVAEQDELSLQEGDLNGQKGALNGQGALNSQEEEEVIVTEVGQRDSEDVSKRDSDKEMATKSAVVHDITDDGQEETPEIIEQIPSSESNLEELTQPTESQANDIGFKKVFKFVGFKFTVKKDKTEKPDTVQLLTVKKDEGEGAAGAGDHKDPSLGAGEAASKESEPKQSTEKPEETLKREQSHAEISPPAESGQAVEECKEEGEEKQEKEPSKSAESPTSPVTSETGSTFKKFFTQGWAGWRKKTSFRKPKEDEVEASEKKKEQEPEKVDTEEDGKAEVASEKLTASEQAHPQEPAESAHEPRLSAEYEKVELPSEEQVSGSQGPSEEKPAPLATEVFDEKIEVHQEEVVAEVHVSTVEERTEEQKTEVEETAGSVPAEELVEMDAEPQEAEPAKELVKLKETCVSGEDPTQGADLSPDEKVLSKPPEGVVSEVEMLSSQERMKVQGSPLKKLFTSTGLKKLSGKKQKGKRGGGDEESGEHTQVPADSPDSQEEQKGESSASSPEEPEEITCLEKGLAEVQQDGEAEEGATSDGEKKREGVTPWASFKKMVTPKKRVRRPSESDKEDELDKVKSATLSSTESTASEMQEEMKGSVEEPKPEEPKRKVDTSVSWEALICVGSSKKRARRGSSSDEEGGPKAMGGDHQKADEAGKDKETGTDGILAGSQEHDPGQGSSSPEQAGSPTEGEGVSTWESFKRLVTPRKKSKSKLEEKSEDSIAGSGVEHSTPDTEPGKEESWVSIKKFIPGRRKKRPDGKQEQAPVEDAGPTGANEDDSDVPAVVPLSEYDAVEREKMEAQQAQKSAEQPEQKAATEVSKELSESQVHMMAAAVADGTRAATIIEERSPSWISASVTEPLEQVEAEAALLTEEVLE
notes: AKAP12, human, N-terminal fragment, residues 1-938; also called AKAP12 N-terminal (1-938) fragment; source: HEK293, transfected (pcDNA3.1), in whole-cell lysate
Usually stoichiometry N stands for a count of units in the complex or per binding partner. In the case of B1, the “stoichiometry N” value was determined as 2.

B2: HA-tagged full-length AKAP12 (1-1782) (natural protein, human, UniProt Q02952 1-1782, looked up)
chain: MGAGSSTEQRSPEQPPEGSSTPAEPEPSGGGPSAEAAPDTTADPAIAASDPATKLLQKNGQLSTINGVAEQDELSLQEGDLNGQKGALNGQGALNSQEEEEVIVTEVGQRDSEDVSKRDSDKEMATKSAVVHDITDDGQEETPEIIEQIPSSESNLEELTQPTESQANDIGFKKVFKFVGFKFTVKKDKTEKPDTVQLLTVKKDEGEGAAGAGDHKDPSLGAGEAASKESEPKQSTEKPEETLKREQSHAEISPPAESGQAVEECKEEGEEKQEKEPSKSAESPTSPVTSETGSTFKKFFTQGWAGWRKKTSFRKPKEDEVEASEKKKEQEPEKVDTEEDGKAEVASEKLTASEQAHPQEPAESAHEPRLSAEYEKVELPSEEQVSGSQGPSEEKPAPLATEVFDEKIEVHQEEVVAEVHVSTVEERTEEQKTEVEETAGSVPAEELVEMDAEPQEAEPAKELVKLKETCVSGEDPTQGADLSPDEKVLSKPPEGVVSEVEMLSSQERMKVQGSPLKKLFTSTGLKKLSGKKQKGKRGGGDEESGEHTQVPADSPDSQEEQKGESSASSPEEPEEITCLEKGLAEVQQDGEAEEGATSDGEKKREGVTPWASFKKMVTPKKRVRRPSESDKEDELDKVKSATLSSTESTASEMQEEMKGSVEEPKPEEPKRKVDTSVSWEALICVGSSKKRARRGSSSDEEGGPKAMGGDHQKADEAGKDKETGTDGILAGSQEHDPGQGSSSPEQAGSPTEGEGVSTWESFKRLVTPRKKSKSKLEEKSEDSIAGSGVEHSTPDTEPGKEESWVSIKKFIPGRRKKRPDGKQEQAPVEDAGPTGANEDDSDVPAVVPLSEYDAVEREKMEAQQAQKSAEQPEQKAATEVSKELSESQVHMMAAAVADGTRAATIIEERSPSWISASVTEPLEQVEAEAALLTEEVLEREVIAEEEPPTVTEPLPENREARGDTVVSEAELTPEAVTAAETAGPLGAEEGTEASAAEETTEMVSAVSQLTDSPDTTEEATPVQEVEGGVPDIEEQERRTQEVLQAVAEKVKEESQLPGTGGPEDVLQPVQRAEAERPEEQAEASGLKKETDVVLKVDAQEAKTEPFTQGKVVGQTTPESFEKAPQVTESIESSELVTTCQAETLAGVKSQEMVMEQAIPPDSVETPTDSETDGSTPVADFDAPGTTQKDEIVEIHEENEVASGTQSGGTEAEAVPAQKERPPAPSSFVFQEETKEQSKMEDTLEHTDKEVSVETVSILSKTEGTQEADQYADEKTKDVPFFEGLEGSIDTGITVSREKVTEVALKGEGTEEAECKKDDALELQSHAKSPPSPVEREMVVQVEREKTEAEPTHVNEEKLEHETAVTVSEEVSKQLLQTVNVPIIDGAKEVSSLEGSPPPCLGQEEAVCTKIQVQSSEASFTLTAAAEEEKVLGETANILETGETLEPAGAHLVLEEKSSEKNEDFAAHPGEDAVPTGPDCQAKSTPVIVSATTKKGLSSDLEGEKTTSLKWKSDEVDEQVACQEVKVSVAIEDLEPENGILELETKSSKLVQNIIQTAVDQFVRTEETATEMLTSELQTQAHVIKADSQDAGQETEKEGEEPQASAQDETPITSAKEESESTAVGQAHSDISKDMSEASEKTMTVEVEGSTVNDQQLEEVVLPSEEEGGGAGTKSVPEDDGHALLAERIEKSLVEPKEDEKGDDVDDPENQNSALADTDASGGLTKESPDTNGPKQKEKEDAQEVELQEGKVHSESDKAITPQAQEELQKQERESAKSELTES
notes: AKAP12, human, full length (1-1782); also called HA-AKAP12; HA-tagged AKAP12; source: HEK293, transfected (pcDNA3.1), in whole-cell lysate
For B2, the “stoichiometry N” value was 2.

B3: full-length endogenous AKAP12 (natural protein, human (endogenous in HEK293), UniProt Q02952 1-1782, looked up)
chain: MGAGSSTEQRSPEQPPEGSSTPAEPEPSGGGPSAEAAPDTTADPAIAASDPATKLLQKNGQLSTINGVAEQDELSLQEGDLNGQKGALNGQGALNSQEEEEVIVTEVGQRDSEDVSKRDSDKEMATKSAVVHDITDDGQEETPEIIEQIPSSESNLEELTQPTESQANDIGFKKVFKFVGFKFTVKKDKTEKPDTVQLLTVKKDEGEGAAGAGDHKDPSLGAGEAASKESEPKQSTEKPEETLKREQSHAEISPPAESGQAVEECKEEGEEKQEKEPSKSAESPTSPVTSETGSTFKKFFTQGWAGWRKKTSFRKPKEDEVEASEKKKEQEPEKVDTEEDGKAEVASEKLTASEQAHPQEPAESAHEPRLSAEYEKVELPSEEQVSGSQGPSEEKPAPLATEVFDEKIEVHQEEVVAEVHVSTVEERTEEQKTEVEETAGSVPAEELVEMDAEPQEAEPAKELVKLKETCVSGEDPTQGADLSPDEKVLSKPPEGVVSEVEMLSSQERMKVQGSPLKKLFTSTGLKKLSGKKQKGKRGGGDEESGEHTQVPADSPDSQEEQKGESSASSPEEPEEITCLEKGLAEVQQDGEAEEGATSDGEKKREGVTPWASFKKMVTPKKRVRRPSESDKEDELDKVKSATLSSTESTASEMQEEMKGSVEEPKPEEPKRKVDTSVSWEALICVGSSKKRARRGSSSDEEGGPKAMGGDHQKADEAGKDKETGTDGILAGSQEHDPGQGSSSPEQAGSPTEGEGVSTWESFKRLVTPRKKSKSKLEEKSEDSIAGSGVEHSTPDTEPGKEESWVSIKKFIPGRRKKRPDGKQEQAPVEDAGPTGANEDDSDVPAVVPLSEYDAVEREKMEAQQAQKSAEQPEQKAATEVSKELSESQVHMMAAAVADGTRAATIIEERSPSWISASVTEPLEQVEAEAALLTEEVLEREVIAEEEPPTVTEPLPENREARGDTVVSEAELTPEAVTAAETAGPLGAEEGTEASAAEETTEMVSAVSQLTDSPDTTEEATPVQEVEGGVPDIEEQERRTQEVLQAVAEKVKEESQLPGTGGPEDVLQPVQRAEAERPEEQAEASGLKKETDVVLKVDAQEAKTEPFTQGKVVGQTTPESFEKAPQVTESIESSELVTTCQAETLAGVKSQEMVMEQAIPPDSVETPTDSETDGSTPVADFDAPGTTQKDEIVEIHEENEVASGTQSGGTEAEAVPAQKERPPAPSSFVFQEETKEQSKMEDTLEHTDKEVSVETVSILSKTEGTQEADQYADEKTKDVPFFEGLEGSIDTGITVSREKVTEVALKGEGTEEAECKKDDALELQSHAKSPPSPVEREMVVQVEREKTEAEPTHVNEEKLEHETAVTVSEEVSKQLLQTVNVPIIDGAKEVSSLEGSPPPCLGQEEAVCTKIQVQSSEASFTLTAAAEEEKVLGETANILETGETLEPAGAHLVLEEKSSEKNEDFAAHPGEDAVPTGPDCQAKSTPVIVSATTKKGLSSDLEGEKTTSLKWKSDEVDEQVACQEVKVSVAIEDLEPENGILELETKSSKLVQNIIQTAVDQFVRTEETATEMLTSELQTQAHVIKADSQDAGQETEKEGEEPQASAQDETPITSAKEESESTAVGQAHSDISKDMSEASEKTMTVEVEGSTVNDQQLEEVVLPSEEEGGGAGTKSVPEDDGHALLAERIEKSLVEPKEDEKGDDVDDPENQNSALADTDASGGLTKESPDTNGPKQKEKEDAQEVELQEGKVHSESDKAITPQAQEELQKQERESAKSELTES
notes: AKAP12, endogenous in HEK293 cells, detected with anti-AKAP12 antibody; also called native AKAP12; endogenously expressed AKAP12; source: endogenous, HEK293 whole-cell lysate
In the case of B3, the “stoichiometry N” value was 2.

B4: HA-AKAP12 (840-1782) (domain or fragment, human, UniProt Q02952 840-1782, looked up)
chain: DSDVPAVVPLSEYDAVEREKMEAQQAQKSAEQPEQKAATEVSKELSESQVHMMAAAVADGTRAATIIEERSPSWISASVTEPLEQVEAEAALLTEEVLEREVIAEEEPPTVTEPLPENREARGDTVVSEAELTPEAVTAAETAGPLGAEEGTEASAAEETTEMVSAVSQLTDSPDTTEEATPVQEVEGGVPDIEEQERRTQEVLQAVAEKVKEESQLPGTGGPEDVLQPVQRAEAERPEEQAEASGLKKETDVVLKVDAQEAKTEPFTQGKVVGQTTPESFEKAPQVTESIESSELVTTCQAETLAGVKSQEMVMEQAIPPDSVETPTDSETDGSTPVADFDAPGTTQKDEIVEIHEENEVASGTQSGGTEAEAVPAQKERPPAPSSFVFQEETKEQSKMEDTLEHTDKEVSVETVSILSKTEGTQEADQYADEKTKDVPFFEGLEGSIDTGITVSREKVTEVALKGEGTEEAECKKDDALELQSHAKSPPSPVEREMVVQVEREKTEAEPTHVNEEKLEHETAVTVSEEVSKQLLQTVNVPIIDGAKEVSSLEGSPPPCLGQEEAVCTKIQVQSSEASFTLTAAAEEEKVLGETANILETGETLEPAGAHLVLEEKSSEKNEDFAAHPGEDAVPTGPDCQAKSTPVIVSATTKKGLSSDLEGEKTTSLKWKSDEVDEQVACQEVKVSVAIEDLEPENGILELETKSSKLVQNIIQTAVDQFVRTEETATEMLTSELQTQAHVIKADSQDAGQETEKEGEEPQASAQDETPITSAKEESESTAVGQAHSDISKDMSEASEKTMTVEVEGSTVNDQQLEEVVLPSEEEGGGAGTKSVPEDDGHALLAERIEKSLVEPKEDEKGDDVDDPENQNSALADTDASGGLTKESPDTNGPKQKEKEDAQEVELQEGKVHSESDKAITPQAQEELQKQERESAKSELTES
notes: AKAP12, human, C-terminal fragment, residues 840-1782; also called AKAP12 C-terminal (840-1782) fragment; source: HEK293, transfected (pcDNA3.1), in whole-cell lysate
Turning to B4, the “stoichiometry N” value came to 2.
